According to patent publication US20190023771A1 (MERZ PHARMA, published 2019):

Molecular target: T1, non-cleaved SNAP-25206 (UniProt P60880 1-206)
T1 construct: range 1-206; also called SNAP-25206 uncleaved substrate
Assay: ELISA and Western blots

T1 sequence (P60880 whole entry): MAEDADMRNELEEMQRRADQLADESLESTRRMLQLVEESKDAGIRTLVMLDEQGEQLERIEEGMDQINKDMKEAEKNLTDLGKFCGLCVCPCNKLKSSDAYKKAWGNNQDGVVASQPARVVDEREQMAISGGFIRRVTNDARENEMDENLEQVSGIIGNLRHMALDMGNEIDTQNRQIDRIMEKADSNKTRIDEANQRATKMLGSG

B1: mouse monoclonal antibody produced by hybridoma pCNEI 32-7-1, 3614-000 (antibody, V domains shown)
VH: EVQLVESGGGLVQPKGSLKLSCAASGYTFNTYAVNWVRQAPGKGLEWVARIRSKSYNYVTYYADSVKDRFTISRDDSQSMLYLQMNNLKTEDTAMYYCVKGNGNYVSFAYWGQGTLVTVSA
VL: QLVLTQSSSASFSLGASAKLTCTLSSQHNTYTIEWYQQQPLKPPKYVMELKKDGSHSTGDGIPDRFSGSSSGADRYLSISNIQPEDEAIYICGVGDTIKEQFVYVFGGGTKVTVL
notes: also called monoclonal antibody of the invention; DSM ACC3261
B1: no binding.
